Measured values as given in the DeepSol protein solubility set.

Experiment: soluble on expression in E. coli; label from the status in PepcDB or PDB records
For “MTVPEEAQTLIGKHYRAPDHFLVGREKIREFAVAVKDDHPTHYSEPDAAAAGYPALVAPLTFLAIAGRRVQLEIFTKFNIPINIARVFHRDQKFRFHRPILANDKLYFDTYLDSVIESHGTVLAEIRSEVTDAEGKPVVTSVVTMLGLEHHHHHH”, the “soluble on expression in E. coli” value was “not soluble”. For “NDAFRWKTQFNFSTNKNKIIKLHPDLKTFVYGDESFSSSYSMRLVEGGSFGDIYGKAFERDENGKVAFTTDKDGDKIPNVIGGGNTEKVGNCNPDFMLGWSNTFTYKGFSLYFLIDGRFGGDVLSQTQAELDQRGVSLNSGKARDAGYINIDGTQVKPRKFYTAVSGRDGCTEYYMYDATNIRLRELSLGYSLPQSWLAKAGGAFKDVQLSFVARNLFFISKKAPFDPDAVLSTGNDNQGIDVFGMPTTRSLGFNIKFTF”, the “soluble on expression in E. coli” value was “not soluble”. In the case of “MTNIRVAIVGYGNLGRSVEKLIAKQPDMDLVGIFSRRATLDTKTPVFDVADVDKHADDVDVLFLCMGSATDIPEQAPKFAQFACTVDTYDNHRDIPRHRQVMNEAATAAGNVALVSTGWDPGMFSINRVYAAAVLAEHQQHTFWGPGLSQGHSDALRRIPGVQKAVQYTLPSEDALEKARRGEAGDLTGKQTHKRQCFVVADAADHERIENDIRTMPDYFVGYEVEVNFIDEATFDSEHTGMPHGGHVITTGDTGGFNHTVEYILKLDRNPDFTASSQIAFGRAAHRMKQQGQSGAFTVLEVAPYLLSPENLDDLIARDV”, the “soluble on expression in E. coli” value is reported as “soluble”. With “MGSDKIHHHHHHMYETFMKRAIELAKKGLGRVNPNPPVGAVVVKDGRIIAEGFHPYFGGPHAERMAIESARKKGEDLRGATLIVTLEPCDHHGKTPPCTDLIIESGIKTVVIGTRDPNPVSGNGVEKFRNHGIEVIEGVLEEEVKKLCEFFITYVTKKRPFVALKYASTLDGKIADHRGDSKWITDKLRFKVHEMRNIYSAVLVGAGTVLKDNPQLTCRLKEGRNPVRVILDRKGVLSGKVFRVFEENARVIVFTESEEAEYPPHVEKALSDCSVESILRNLYERDIDSVLVEGGSKVFSEFLDHADVVFGFYSTKIFGKGLDVFSGYLSDVSVPPKFKVVNVEFSDSEFLVEMRPCSRE” the “soluble on expression in E. coli” value was “soluble”. For “MGSDKIHHHHHHMNTRDLDYFRALVDCQNYTMVAKQFAVSQPAVTQAIHRLEKEFAVKLVIQDRRHQQTNITRAGQLLYKNARQIQASLQLAHREIQSTLQTDIRFGLPPIIGTLYFPQIAEKLLQNGLLQQLKITETGSDELLRKLVHGEINIALLGSYLPFDLPTVRAVHLGARPFSIIVSPQNSLAKQAAVSFKNLGQAQFIGLDGKYVHPQAFRAYCDFAGVHPEVIYRTPDISWVKALVKANLGISLLVRDVVKADDGVVCLEIKDQLPVSFNISVVTRAGYLPTTDEQRFIDQLLKMKI”, the “soluble on expression in E. coli” value was “not soluble”. In the case of “MIRLSEQSPLGTGRHRKCYAHPEDAQRCIKIVYHRGDGGDKEIRRELKYYAHLGRRLKDWSGIPRYHGTVETDCGTGYVYDVIADFDGKPSITLTEFAEQCRYEEDIAQLRQLLKQLKRYLQDNRIVTMSLKPQNILCHRISESEVIPVVCDNIGESTLIPLATWSKWCCLRKQERLWKRFIAQPALAIALQKDLQPRESKTLALTSREA”, the “soluble on expression in E. coli” value is reported as “soluble”. For “MSLKKILVIGSKGFIGSNLVAYYEKINTIDVWGCDVISDYSSRNYFLIDASNSDFNEVFQQVAFDVCINCSGSASVPLSMINPGRDFHLNVLNVFNMLDSIRKNIPSCKFVNLSSAAVYGNPESLPIKEDTPINPLSPYGWHKLQSEILCKQFNQNFALHTCSLRIFSAYGIGLRKQLFWDWFQKINDAASMSIYGTGKESRDFIYIDDLIQCIECVVARGDFNAGIYNIANGQEIYIADAIKEFKKASGKSFEYTFTQETRPGDPINWVADISKLKTLGYQQQVTFEKGVEILMKWLQQEKEGHHHHHH”, the “soluble on expression in E. coli” value was “soluble”.
